Assay results: publication PMC10328853, “Design and preclinical evaluation of a novel apelin-based PET radiotracer targeting APJ receptor for molecular imaging of angiogenesis” (Angiogenesis, 2023)

Experiments:
APJ on T84 cells = target: T1, APJ on T84 cells (Homo sapiens, UniProt P35414); assay: In vitro specificity of [68Ga]Ga-AP747 by autoradiography, with and without excess apelin-F13A; type: cell-based; conditions: 1 h incubation, n = 6
T1 construct: endogenous in cells; host or cells: T84 human colon adenocarcinoma cells
T1 sequence (P35414 1-380): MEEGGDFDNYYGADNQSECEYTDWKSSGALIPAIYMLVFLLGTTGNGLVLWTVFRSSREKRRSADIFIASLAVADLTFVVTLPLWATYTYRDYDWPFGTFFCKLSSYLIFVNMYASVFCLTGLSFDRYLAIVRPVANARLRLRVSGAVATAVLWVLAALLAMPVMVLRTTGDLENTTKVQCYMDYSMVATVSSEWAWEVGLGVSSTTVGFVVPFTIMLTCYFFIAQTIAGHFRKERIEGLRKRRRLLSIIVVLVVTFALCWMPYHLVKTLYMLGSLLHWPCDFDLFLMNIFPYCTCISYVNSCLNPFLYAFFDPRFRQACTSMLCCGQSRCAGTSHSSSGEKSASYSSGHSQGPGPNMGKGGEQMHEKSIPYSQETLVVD
Description: T84 cells were seeded at a 1.10^6 cells per well density in 24-well plates (Corning, Corning, USA) and incubated overnight with a complete medium. […] After a 1 h incubation, the medium was removed and the cells were washed 3 times with PBS (Eurobio-scientific, Les Ulis, France) and their viability assessed.

APJ in T84 tumors = target: T2, APJ in T84 tumors (Homo sapiens, UniProt P35414); assay: In vivo specificity of PET signal, T84 colon adenocarcinoma xenograft mice, baseline or APJ-blocking; design: species or system mouse; conditions: PET 1 h p.i., n = 3
T2 construct: Mice bearing ectopic colon adenocarcinoma xenograft; from tissue; host or cells: T84 xenograft tumour in Swiss nude mice
T2 sequence (P35414 1-380): T1 sequence (P35414 1-380)
Description: Human colon adenocarcinoma xenografts were established by subcutaneous dorsal injections of 1.10^6 T84 cells (100 µL, PBS) to 6-week-old male Swiss nude mice (Charles River, Saint-Germain-Nuelles, France, n = 3) under 2% isoflurane anesthesia.
(§1) Small animal PET imaging acquisition lasted 20 min (number of iterations: 4, coincidence: 1–3) using a field of view (FOV) of 10 cm. CT parameters were fixed at 35 kV voltage, 300 ms exposure at medium zoom, acquired by semi-circular method on the same FOV as PET. CT attenuation-corrected reconstruction was performed using Nucline software (Mediso, Budapest, Hungary). […] Tissue uptake values were expressed as a mean target-to-background PET signal ratio (TBRmean) with background represented by the left gastrocnemius muscle.

APJ in Matrigel plug = target: T3, APJ in Matrigel plug (Mus musculus, UniProt Q9WV08); assay: In vivo specificity of PET signal, Matrigel plug mice, baseline or APJ-blocking; conditions: PET 1 h p.i., n = 5
T3 construct: probably related to avascular and acellular contents of Matrigel; from tissue; host or cells: Subcutaneous Matrigel plug in male Swiss mice
T3 sequence (Q9WV08 1-377): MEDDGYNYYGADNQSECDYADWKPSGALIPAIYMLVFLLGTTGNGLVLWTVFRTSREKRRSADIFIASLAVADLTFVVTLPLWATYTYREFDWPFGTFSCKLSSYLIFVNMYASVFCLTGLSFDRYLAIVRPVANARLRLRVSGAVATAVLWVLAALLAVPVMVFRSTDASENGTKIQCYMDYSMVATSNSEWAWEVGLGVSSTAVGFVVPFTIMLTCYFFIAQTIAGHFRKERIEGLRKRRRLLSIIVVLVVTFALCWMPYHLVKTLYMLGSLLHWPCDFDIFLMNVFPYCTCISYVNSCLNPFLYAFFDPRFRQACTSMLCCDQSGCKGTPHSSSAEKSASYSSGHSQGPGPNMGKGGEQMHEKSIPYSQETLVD
Description: Matrigel plugs were established by subcutaneous dorsal injections of 300 µL Matrigel (Dutscher, Bernolsheim, France) supplemented with 10% fetal bovine serum, to 9-week-old male Swiss mice (Janvier Labs, Le Genest-Saint-Isle, France, n = 12) under 2% isoflurane anesthesia. Seven Matrigel mice underwent small animal PET follow-up, and five others were involved in the in vivo specificity study as described below.
as §1

in vivo [1] = conditions: male, Swiss, mouse, iv, 4.45 MBq, total radioactivity
Description: The quantified PET signal in organs was presented as mean ± SD percentage of the decay-corrected injected dose (%ID). Acquisition of small animal dynamic PET/CT was performed for 120 min on a NanoScan PET/CT camera (Mediso, Budapest, Hungary) under 2% isoflurane in medical air anesthesia [PET parameters: numbers of iterations: 4, coincidence: 1–3, field of view (FOV): 10 cm]. CT parameters were fixed at 35 kV voltage, 300 ms exposure at medium zoom, acquired by semi-circular method on the same FOV as PET. CT attenuation-corrected reconstruction was performed using Nucline software (Mediso, Budapest, Hungary) on the following time frames: 0–5 min, 6–10 min, 11–15 min, 16–20 min, 21–25 min, 26–30 min, 31–45 min, 46–60 min, 61–75 min, 76–90 min, 91–105 min, and 106–120 min.

[2] = mouse, in vivo, iv
Description: Blood was collected at 2, 5, 10, 15, 20, 30, 45, 60, 75, 90, 105, and 120 min post-injection and gamma counted with decay correction. Plasmatic half-life (t1/2) was estimated by nonlinear regression. At two hours post-injection, mice were euthanatized and the main organs (heart, liver, lungs, muscle, brain, spleen, intestines, bone, pancreas, and kidneys) were collected, washed in PBS, weighted, and gamma counted. Results were decay corrected and expressed as percentage of injected dose corrected by organ weight (%ID/g).

in vivo [3] = conditions: Pietrain, pig, 85 MBq, total radioactivity
Description: Attenuation-corrected images were reconstructed using ADW software v4.6 (GE Healthcare, Chicago, Illinois, USA), and PET signal quantifications were performed on CT-based manually drawn volumes of interest (VOIs) using VivoQuant software v.3.5 (InVicro, Boston, MA, USA). Results were decay corrected and expressed as mean ± sd percentage of the injected dose (%ID).

[4] = system: Matrigel plug mouse model; assay: Longitudinal PET/CT follow-up in the Matrigel plug mouse model; type: in vivo; conditions: Matrigel mice, n = 7
Description: Matrigel plugs were established by subcutaneous dorsal injections of 300 µL Matrigel (Dutscher, Bernolsheim, France) supplemented with 10% fetal bovine serum, to 9-week-old male Swiss mice (Janvier Labs, Le Genest-Saint-Isle, France, n = 12) under 2% isoflurane anesthesia. Seven Matrigel mice underwent small animal PET follow-up, and five others were involved in the in vivo specificity study as described below. […] Small animal PET imaging acquisition lasted 20 min (numbers of iterations: 4, coincidence: 1–3) using a field of view (FOV) of 10 cm. CT parameters were fixed at 35 kV voltage, 300 ms exposure at medium zoom, acquired by semi-circular method on the same FOV as PET. CT attenuation-corrected reconstruction was performed using Nucline software (Mediso, Budapest, Hungary). Tissue uptake values were expressed as a target-to-background (Matrigel-to-muscle) or as an ischemic-to-contralateral hindlimb PET signal ratio.

[5] = system: hindlimb ischemia mouse model; assay: Longitudinal PET/CT follow-up in the hindlimb ischemia mouse model; type: in vivo; conditions: HLI mice, day 7, PET 1 h after i.v. injection, n = 8
Description: Unilateral hindlimb ischemia (HLI) was induced on 9-week-old female Swiss mice (Janvier Labs, n = 8) after femoral artery excision under 2% isoflurane anesthesia as previously described. LASER Doppler perfusion imaging (Perimed, Craponne, France) was used to assess revascularization from day 0 to day 21 after surgery. Perfusion measurements were expressed as an ischemic-to-contralateral ratio of hind limb blood flow normalized to the day of surgery. […] Small animal PET imaging acquisition lasted 20 min (numbers of iterations: 4, coincidence: 1–3) using a field of view (FOV) of 10 cm. CT parameters were fixed at 35 kV voltage, 300 ms exposure at medium zoom, acquired by semi-circular method on the same FOV as PET. CT attenuation-corrected reconstruction was performed using Nucline software (Mediso, Budapest, Hungary). Tissue uptake values were expressed as a target-to-background (Matrigel-to-muscle) or as an ischemic-to-contralateral hindlimb PET signal ratio.

APJ = conditions: cited from earlier work
Description: In this context, we identified the apelin/APJ system as a relevant molecular target for angiogenesis imaging because of its implication in blood vessels formation by sprouting. The APJ receptor also known as APLNR and AGTRL1 is a class A G-protein-coupled receptor. Apelin is an endogenous ligand of this receptor. The Apelin/APJ system is described as implicated in different pathologies. High levels of APJ mRNA and protein are found respectively in endothelial cells through vessel formation and on sprouting vessels of hypoxic tissues and tumor-associated endothel ...

[6] = 100X apelin-F13A (100 µg) i.v. 30 min before tracer

CSCC[C@H](NC(=O)[C@@H]1CCCN1C(=O)CNC(=O)[C@H](CCCCNC(=O)CCC(C(=O)O)N1CCN(CC(=O)O)CCN(CC(=O)O)CC1)NC(=O)[C@H](Cc1c[nH]cn1)NC(=O)[C@H](CO)NC(=O)[C@H](CC(C)C)NC(=O)[C@H](CCCNC(=N)N)NC(=O)[C@@H]1CCCN1C(=O)[C@H](CCCNC(=N)N)NC(=O)[C@H](CCC(N)=O)NC(=O)CCC(C(=O)O)N1CCN(CC(=O)O)CCN(CC(=O)O)CC1)C(=O)N1CCC[C@H]1C(=O)N[C@@H](C)C(=O)O (some centres unmarked) [[^68Ga]Ga-AP747, metal not drawn]
cell-to-background autoradiography signal ratio, non-blocked (APJ on T84 cells; 1.7 MBq/10 µL per well): 1.40 ± 0.38 | cell-to-background autoradiography signal ratio, blocking (APJ on T84 cells; large excess of apelin-F13A added 10 min before tracer): 0.50 ± 0.23 | PET tumor-to-muscle ratio, blocking (APJ in T84 tumors; [6]): 1.02 ± 0.31 | PET tumor-to-muscle ratio, non-blocked (APJ in T84 tumors; i.v.): 7.93 ± 2.17 | PET Matrigel-to-muscle ratio, blocking (APJ in Matrigel plug; [6]): 2.35 ± 0.62 | PET Matrigel-to-muscle ratio, non-blocked (APJ in Matrigel plug; i.v.): 7.29 ± 3.14 | tissue uptake dose at 2 h (in vivo [1]; PET signal in bladder): 88.3 ± 5 %ID | tissue uptake dose at 2 h (in vivo [1]; PET signal in brain): 0.02 ± 0.001 %ID | tissue uptake dose at 2 h (in vivo [1]; PET signal in kidneys): 1.04 ± 0.2 %ID | tissue uptake dose at 2 h (in vivo [1]; PET signal in liver): 0.35 ± 0.03 %ID | tissue uptake dose at 2 h (in vivo [1]; PET signal in lungs): 0.06 ± 0.02 %ID | Plasmatic half-life (t1/2) [2]: 13.31 min | tissue uptake dose at 2 h (in vivo [3]; PET signal in bladder): 39.4 ± 8.54 %ID | tissue uptake dose at 2 h (in vivo [3]; PET signal in brain): 0.037 ± 0.015 %ID | tissue uptake dose at 2 h (in vivo [3]; PET signal in heart): 0.58 ± 0.16 %ID | tissue uptake dose at 2 h (in vivo [3]; PET signal in kidneys): 3.98 ± 0.79 %ID | tissue uptake dose at 2 h (in vivo [3]; PET signal in liver): 1.42 ± 0.34 %ID | tissue uptake dose at 2 h (in vivo [3]; PET signal in lungs): 1.39 ± 0.46 %ID | target-to-background (Matrigel-to-muscle) PET signal ([4]; day 10, PET 1 h after i.v. injection): 3.78 ± 2.11 | target-to-background (Matrigel-to-muscle) PET signal ([4]; day 13, PET 1 h after i.v. injection): 4.86 ± 2.49 | target-to-background (Matrigel-to-muscle) PET signal ([4]; day 21, PET 1 h after i.v. injection): 5.00 ± 3.04 | i/c (ischemic-to-contralateral hindlimb) PET signal ratio [5]: 5.49 ± 5.97

[Ala13]-Apelin-13 [apelin-F13A]
affinity for APJ (APJ): nanomolar affinity
